Test results reported in patent US20190367619A1 (ARGENX, published 2019).

T1: human galectin-10-His (human)
T1 construct: The last M of the tag may be Met1 of galectin-10; also called humanGal10-His; hGal10
T1 chain: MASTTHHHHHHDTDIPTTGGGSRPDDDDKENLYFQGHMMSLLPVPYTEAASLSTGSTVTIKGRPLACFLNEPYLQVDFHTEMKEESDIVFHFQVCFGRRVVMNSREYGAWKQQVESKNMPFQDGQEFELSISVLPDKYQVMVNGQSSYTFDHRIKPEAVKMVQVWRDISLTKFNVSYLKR

T2: cynomolgus galectin-10-His, WGS isoform (cynomolgus)
T2 construct: also called cynoGal10-WGS; not shown: His tag
T2 chain: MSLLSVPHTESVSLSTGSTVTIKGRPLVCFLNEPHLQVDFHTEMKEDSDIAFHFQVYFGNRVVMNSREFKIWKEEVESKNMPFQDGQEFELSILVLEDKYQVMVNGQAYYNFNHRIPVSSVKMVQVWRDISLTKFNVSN

T3: cynomolgus galectin-10-His, YRT isoform (cynomolgus)
T3 construct: also called cynoGal10-YRT; not shown: His tag
T3 chain: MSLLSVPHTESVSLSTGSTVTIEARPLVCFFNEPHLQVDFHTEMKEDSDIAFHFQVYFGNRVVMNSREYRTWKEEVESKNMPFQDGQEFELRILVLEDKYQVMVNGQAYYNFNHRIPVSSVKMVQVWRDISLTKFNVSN


Tests used:
[1] = target: T1, human galectin-10-His; assay: SPR Biacore (summary table)
Protocol: (§1) The binding properties of the scFv-human Fc panel to galectin-10 were analyzed on the Biacore T3000. For this purpose, a CM5 Chip was coated with polyclonal anti-human Fc at 8000 RU, then a fixed concentration of the scFv-human Fc panel (1.5 μg/mL) were captured to reach a binding signal around 150 RU. Finally, a serial dilution of human or cynomolgus WGS isoform of galectin-10-His (serial dilution, 1 over 2 from 5 μg/mL, 6 points of dilution) was injected. Raw data were analyzed via BIA evaluation software with a blank subtraction (4-3). Finally, the kd/KD and Rmax of each scFv-human Fc to galectin-10-His was determined using the Fit Kinetics simultaneous ka/kd/Binding with mass transfer/Local Rmax on BIA evaluation software.

[2] = target: T2, cynomolgus galectin-10-His, WGS isoform; assay: SPR Biacore (summary table)
Protocol: as §1

[3] = target: T1, human galectin-10-His; assay: SPR Biacore T3000, scFv-human Fc captured
Protocol: as §1

[4] = target: T2, cynomolgus galectin-10-His, WGS isoform; assay: SPR Biacore T3000, scFv-human Fc captured
Protocol: as §1

[5] = target: T1, human galectin-10-His; assay: ELISA, coated antigen 0.2 ug/mL
Protocol: (§2) In a similar setup to that used during the initial screening, the relative binding properties of the 11 new scFv-human Fc clones were analyzed by ELISA. Briefly, a Maxisorp plate was coated overnight with human or cynomolgus WGS or YRT isoforms of galectin-10-His at 0.2 μg/mL and blocked with PBS 1% casein, before being incubated with a serial dilution of the scFv-human Fc fusion molecules (from 100 nM, dilution 1/5, 8 points of dilutions). After several washing steps, detection of the bound scFv-human Fc was carried out with an anti-human Fc-HRP antibody (Jackson ImmunoResearch, Catalog 109-035-008). Absorbance was measured at 450 nm (reference at 620 nm) with Tecan instrument. Finally, the raw data (OD values) were plotted on GraphPad Prism 7.01. The EC50 values of each clone, calculated with a non-linear regression (log(agonist) vs. response Variable slope (four parameters)) are reported in Table 19 below. As a positive control, clone 6F05 from the previous galectin-10 antibody panel was included.

[6] = target: T2, cynomolgus galectin-10-His, WGS isoform; assay: ELISA, coated antigen 0.2 ug/mL
Protocol: as §2

[7] = target: T3, cynomolgus galectin-10-His, YRT isoform; assay: ELISA, coated antigen 0.2 ug/mL
Protocol: as §2

[8] = target: T1, human galectin-10-His; assay: binding ELISA (summary table)
Protocol: as §2

[9] = target: T2, cynomolgus galectin-10-His, WGS isoform; assay: binding ELISA (summary table)
Protocol: as §2

[10] = target: T3, cynomolgus galectin-10-His, YRT isoform; assay: binding ELISA (summary table)
Protocol: as §2

| Kd [1] [pM] | koff [1] [s⁻¹] | kon [1] [M⁻¹ s⁻¹] | Kd [2] [pM] | koff [2] [s⁻¹] | kon [2] [M⁻¹ s⁻¹] | Kd [3] [pM] | koff [3] [s⁻¹] | kon [3] [M⁻¹ s⁻¹] | Kd [4] [pM] | koff [4] [s⁻¹] | kon [4] [M⁻¹ s⁻¹] | Bmax [5] [OD] | EC50 [5] [pM] | Bmax [6] [OD] | Bmax [7] [OD] | EC50 [7] [pM] | EC50 [8] [pM] | EC50 [9] [pM] | EC50 [10] [pM] | Binder | also measured |
| --- | --- | --- | --- | --- | --- | --- | --- | --- | --- | --- | --- | --- | --- | --- | --- | --- | --- | --- | --- | --- | --- |
| 2000 | 0.00066 | 340000 | 2700 | 0.00122 | 450000 | 2000 | 0.00066 | 340000 | 2700 | 0.00122 | 450000 | 1.9 | 560 | 3.1 | 2 | 1400 | 560 | 1120 | 1400 | 10D02 scFv-human Fc (Fc fusion, also called 010D02; not shown: CH2-CH3 constant domains of human IgG1 (pUPEX50 scFv-Fc fusion vector)) scFv: EVQLVESGGGLVQPGGSLRVSCAASGFTFSSYYMSWVRQAPGKGLEWVSGIVTGGGRTHYTDSVKGRFTITRDNAKNTLYLQMNSLRPEDTALYYCARVNGVVTNYDYWGQGTQVTVSSGGGGSGGGGSGGGGSQAVLTQPPSVSGSPGKTVTISCAGTSSDVGYGNYVSWYQQLPGMAPKLLIYDVNKRASGITDRFSGSKSGNTASLTISGLQSEDEADYFCASYRSPNNVVFGQGTHLTVL | EC50 [6]: 1120 pM |
| 1800 | 0.00082 | 453000 | 900 | 0.00161 | 1.75e+06 | 1800 | 0.00082 | 453000 | 900 | 0.00161 | 1.75e+06 | 2.3 | 180 | 3.1 | 3.1 | 100 | 180 | 130 | 100 | 8H11 scFv-human Fc (Fc fusion, also called 008H11; not shown: CH2-CH3 constant domains of human IgG1 (pUPEX50 scFv-Fc fusion vector)) scFv: ELQLVESGGGLVQPGGSLRLSCAASGFTFSTNYMNWVRQAPGKGLEWVSGITSGGGRTYYADSVKGRFTISRDNAKNTLYLQMNSLKPEDTALYYCARTDHAWLDAWGQGTLVTVSSGGGGSGGGGSGGGGSQAGLTQPPSVSGTLGKTVTISCAGTSSDVGYGNYVSWYQQLPGTAPKLLIYAVSTRASGIPDRFSGSKSGNTASLTISGLLSEDEADYYCASYRSSNNYVFGGGTKLTVL | EC50 [6]: 130 pM |
| 5400 | 0.00203 | 370000 | 7900 | 0.00185 | 240000 | 5400 | 0.00203 | 370000 | 7900 | 0.00185 | 240000 | 1.5 | 770 | 2.5 | 2.5 | – | 770 | 10400 | – | 11F02 scFv-human Fc (Fc fusion, also called 011F02; not shown: CH2-CH3 constant domains of human IgG1 (pUPEX50 scFv-Fc fusion vector)) scFv: ELQVVESGGGLVQPGGSLRLSCAASGFTFSTNYMNWVRQAPGKGLEWVSGITSHGARTYYADSVKGRFTISRDNSKNTLYLQMNSLKPEDTALYYCARTDHASLDAWGQGTLVTVSSGGGGSGGGGSGGGGSQTVVTQEPSLSVSPGGTVTLTCGLSSGSVTSSNYPGWYQQKPGQAPRTLIYNTNSRYSGVPNRFSGSISGNKAALTITGAQPEDEADYYCALYMGSSSYNTVFGGGTHLTVL | – |
| 300 | 0.00025 | 910000 | – | – | – | 300 | 0.00025 | 910000 | – | – | – | 1.2 | 80 | – | 3 | 40 | 80 | – | 40 | 10A06 scFv-human Fc (Fc fusion, also called 010A06; not shown: CH2-CH3 constant domains of human IgG1 (pUPEX50 scFv-Fc fusion vector)) scFv: QVQLVESGGGLVQPGGSLRLSCAASGFTFGNYDMSWVRQAPGKGPEWVSDINSGGGSTYYADSVKGRFTISRDNAKNSLLLQMNSLKPEDTAVYYCATGYTGYYYWGQGTQVTVSSGGGGSGGGGSGGGGSQTVVTQEPSLSVSPGGTVTLTCGLSSGSVTSSNYPAWYQQTPGQAPRALIYSINSRHSGVPDRFSGSISGNKAALTITGAQAEDEADYYCTLYMGTGSNNVVFGGGTHLTVL | – |
| 800 | 0.00124 | 1.5e+06 | 1500 | 0.0766 | 5e+07 | 800 | 0.00124 | 1.5e+06 | 1500 | 0.0766 | 5e+07 | 0.6 | 1110 | 0.6 | 0 | – | 1110 | 820 | – | 7B07 scFv-human Fc (Fc fusion, also called 007B07; not shown: CH2-CH3 constant domains of human IgG1 (pUPEX50 scFv-Fc fusion vector)) scFv: QVQLVESGGGLVQPGGSLRLSCAASGFTFRSYDMSWVRQAPGKGPEWVSAIKNGGGITYYADSVKGRFTISRDNAKNTLYLQMNSLKPEDTAVYYCATTHGIGTLGFGSWGQGTQVTVSSGGGGSGGGGSGGGGSSYELTQSASVSVALTQTAKITCDGNNIGSKSAQWYQQKPGQAPALVIYADEYRPEGIPERFSGSNSGNTATLIISGAQAEDEADYYCQVWDGSAAVFGRGTHLTVL | EC50 [6]: 820 pM; binding result [7]: no binding (tested: serial dilution from 100 nM) |
| 1600 | 0.00081 | 500000 | 1000 | 0.0008 | 770000 | 1600 | 0.00081 | 500000 | 1000 | 0.0008 | 770000 | 2.2 | 90 | 3.3 | 3.2 | 50 | 90 | 50 | 50 | 10B02 scFv-human Fc (Fc fusion, also called 010B02; not shown: CH2-CH3 constant domains of human IgG1 (pUPEX50 scFv-Fc fusion vector)) scFv: QVQLVESGGGLVQPGGSLRVSCAASGFTFSYHYMNWVRQAPGKGLEWVSGISAGGGRTYYADSVKGRFTISRDNAKNTLYLQMNSLNAEDTALYYCARVHGITNDYWGQGTQVTVSSGGGGSGGGGSGGGGSQSALTQPPSVSGSPGKTVTISCAGTSSDVGYGNYVSWYQQLPGMAPKLLIYEVNKRASGITDRFSGSKSGNTAFLTISGLQSEDEADYYCASYRNSNNWVFGGGTHLTVL | EC50 [6]: 50 pM |
| 2300 | 0.00072 | 320000 | – | – | – | 2300 | 0.00072 | 320000 | – | – | – | 1.8 | 560 | – | 3 | 240 | 560 | – | 240 | 11F12 scFv-human Fc (Fc fusion, also called 011F12; not shown: CH2-CH3 constant domains of human IgG1 (pUPEX50 scFv-Fc fusion vector)) scFv: QVQLQESGGGLVQPGGSLRLSCAASGFTFSTNYMNWVRQAPGKGLEWVSGITSGGGRTYYADSVKGRFTISRDNAKNTLYLQMNSLKPEDTALYYCARTDHAWLDAWGQGTLVTVSSGGGGSGGGGSGGGGSHSAVTQPPSVSGTLGKTVTISCAGTSSDVGYGNYVSWYQHLPGTAPKLLIYAVSTRASGVPDRFSGSKSGNTASLTISGLQSEDEGDYYCASYSVRNNVVFGGGTRLTVL | – |
